Laboratory results: patent publication WO2018223004A1 (dated 2018)

Biological target: T1, human CD20 (B-lymphocyte antigen CD20) (human, UniProt P11836 1-297)
T1 sequence (looked up): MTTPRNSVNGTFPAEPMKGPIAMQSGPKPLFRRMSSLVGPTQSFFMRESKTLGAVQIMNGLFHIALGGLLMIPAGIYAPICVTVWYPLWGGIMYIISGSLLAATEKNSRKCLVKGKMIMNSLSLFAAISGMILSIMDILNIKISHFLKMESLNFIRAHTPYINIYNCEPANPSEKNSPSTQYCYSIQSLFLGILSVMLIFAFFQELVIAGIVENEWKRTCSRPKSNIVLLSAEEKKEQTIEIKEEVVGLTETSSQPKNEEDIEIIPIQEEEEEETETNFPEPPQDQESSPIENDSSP
Experiment: cell-based or functional assay

B1: XmAb13676 Anti-CD20 x Anti-CD3 Fab-scFv-Fc bispecific antibody (bispecific antibody)
heavy: QVQLVQSGAEVKKPGASVKVSCKASGYTFTSYNMHWVRQAPGQGLEWMGAIYPGNGDTSYNQKFQGRVTITADKSISTAYMELSSLRSEDTAVYYCARSTYYGGDWYFNVWGAGTLVTVSSASTKGPSVFPLAPSSKSTSGGTAALGCLVKDYFPEPVTVSWNSGALTSGVHTFPAVLQSSGLYSLSSVVTVPSSSLGTQTYICNVNHKPSDTKVDKKVEPKSCDKTHTCPPCPAPPVAGPSVFLFPPKPKDTLMISRTPEVTCVVVDVKHEDPEVKFNWYVDGVEVHNAKTKPREEEYNSTYRVVSVLTVLHQDWLNGKEYKCKVSNKALPAPIEKTISKAKGQPREPQVYTLPPSREEMTKNQVSLTCDVSGFYPSDIAVEWESDGQPENNYKTTPPVLDSDGSFFLYSKLTVDKSRWEQGDVFSCSVMHEALHNHYTQKSLSLSPGK
scFv: not shown
light: QIVLTQSPSSLSASVGDRVTITCRASSSVSYIHWFQQKPGKSPKPLIYATSNLASGVPVRFSGSGSGTDYTLTISSLQPEDFATYYCQQWTSNPPTFGGGTKVEIKRTVAAPSVFIFPPSDEQLKSGTASVVCLLNNFYPREAKVQWKVDNALQSGNSQESVTEQDSKDSTYSLSSTLTLSKADYEKHKVYACEVTHQGLSSPVTKSFNRGEC
EC50 of Jeko-1 target cell killing in the absence of rituximab: 24 ng/mL | EC50 of Jeko-1 target cell killing with 3 μg/ml rituximab: 51 ng/mL | EC50 of Jeko-1 target cell killing with 10 μg/ml rituximab: 93 ng/mL | EC50 of Jeko-1 target cell killing with 30 μg/ml rituximab: 162 ng/mL | EC50 of Jeko-1 target cell killing with 100 μg/ml rituximab: 387 ng/mL | EC50 of RTCC against Ramos cells with purified T cells from six healthy donors: 5.3 to 14.3 ng/mL | potency of killing of SC-1 against the cell lines with high or intermediate CD20 levels: ~10 fold
